Measured values from US20240192215A1 (E AND S HEALTHCARE, published 2024).
One block for each binder: values may come before it.

Legend:
Peptide_092 = molecular target: T1, Peptide_092 (human); experiment: peptide microarray, 0.0016 ug/mL
T1 construct: 15-mer of hTrx1 on microarray
T1 peptide: PTFQFFKKGQKVGEF
Experimental: (§1) 5, 1, 0.2, 0.04, 0.008 and 0.0016 μg/mL serial dilutions were incubated on a single multi-well microarray slide at 30° C. for 1 hour. The slide includes 21 individual mini-arrays (one mini-array per sample dilution).
(§2) DyLight 650 was used as a label. False-positive binding to a peptide was evaluated by performing one additional control incubation in which only a secondary antibody was applied on the same microarray slide. Before performing each step, the microarrays were washed with a washing buffer.

Peptide_025 = molecular target: T2, Peptide_025 (human); experiment: peptide microarray, 0.0016 ug/mL
T2 construct: 15-mer of hTrx1 on microarray
T2 peptide: KTAFQEALDAAGDKL
Experimental: as §1, §2

Peptide_019 = molecular target: T3, Peptide_019 (human); experiment: peptide microarray, 0.0016 ug/mL
T3 construct: 15-mer of hTrx1 on microarray
T3 peptide: VKQIESKTAFQEALD
Experimental: as §1, §2

Peptide_018 = molecular target: T4, Peptide_018 (human); experiment: peptide microarray, 0.0016 ug/mL
T4 construct: 15-mer on microarray; not native form, includes recombinant insert region; also called HVKQIESKTAFQEAL
T4 peptide: HVKQIESKTAFQEAL
Experimental: as §1, §2

Peptide_012 = molecular target: T5, Peptide_012 (human); experiment: peptide microarray, 0.0016 ug/mL
T5 construct: 15-mer on microarray; not native form, includes recombinant insert region
T5 peptide: HHHHHHHVKQIESKT
Experimental: as §1, §2

Peptide_045 = molecular target: T6, Peptide_045 (human); experiment: peptide microarray, 0.0016 ug/mL
T6 construct: 15-mer of hTrx1 on microarray
T6 peptide: SATWCGPCKMIKPFF
Experimental: as §1, §2

Peptide_084 = molecular target: T7, Peptide_084 (human); experiment: peptide microarray, 0.0016 ug/mL
T7 construct: 15-mer of hTrx1 on microarray
T7 peptide: SECEVKCMPTFQFFK
Experimental: as §1, §2

Peptide_015 = molecular target: T8, Peptide_015 (human); experiment: peptide microarray, 0.0016 ug/mL
T8 construct: 15-mer on microarray; not native form, includes recombinant insert region
T8 peptide: HHHHVKQIESKTAFQ
Experimental: as §1, §2

Peptide_014 = molecular target: T9, Peptide_014 (human); experiment: peptide microarray, 0.0016 ug/mL
T9 construct: 15-mer on microarray; not native form, includes recombinant insert region
T9 peptide: HHHHHVKQIESKTAF
Experimental: as §1, §2

Peptide_093 = molecular target: T10, Peptide_093 (human); experiment: peptide microarray, 0.0016 ug/mL
T10 construct: 15-mer of hTrx1 on microarray
T10 peptide: TFQFFKKGQKVGEFS
Experimental: as §1, §2

Peptide_051 = molecular target: T11, Peptide_051 (human); experiment: peptide microarray, 0.0016 ug/mL
T11 construct: 15-mer of hTrx1 on microarray
T11 peptide: PCKMIKPFFHSLSEK
Experimental: as §1, §2

Peptide_022 = molecular target: T12, Peptide_022 (human); experiment: peptide microarray, 0.0016 ug/mL
T12 construct: 15-mer of hTrx1 on microarray
T12 peptide: IESKTAFQEALDAAG
Experimental: as §1, §2

Peptide_024 = molecular target: T13, Peptide_024 (human); experiment: peptide microarray, 0.0016 ug/mL
T13 construct: 15-mer of hTrx1 on microarray
T13 peptide: SKTAFQEALDAAGDK
Experimental: as §1, §2

Peptide_023 = molecular target: T14, Peptide_023 (human); experiment: peptide microarray, 0.0016 ug/mL
T14 construct: 15-mer of hTrx1 on microarray
T14 peptide: ESKTAFQEALDAAGD
Experimental: as §1, §2

Peptide_094 = molecular target: T15, Peptide_094 (human); experiment: peptide microarray, 0.0016 ug/mL
T15 construct: 15-mer of hTrx1 on microarray
T15 peptide: FQFFKKGQKVGEFSG
Experimental: as §1, §2

Peptide_095 = molecular target: T16, Peptide_095 (human); experiment: peptide microarray, 0.0016 ug/mL
T16 construct: 15-mer of hTrx1 on microarray
T16 peptide: QFFKKGQKVGEFSGA
Experimental: as §1, §2

Peptide_026 = molecular target: T17, Peptide_026; experiment: peptide microarray, anti-mouse IgG DyLight 650, MMC2 heatmap (Example 17)
T17 peptide: TAFQEALDAAGDKLV

Peptide_105 = molecular target: T18, Peptide_105; experiment: as above
T18 construct: also called EFSGANKEKLEATIN
T18 peptide: EFSGANKEKLEATIN

Peptide_002 = molecular target: T19, Peptide_002; experiment: as above
T19 peptide: ATAADVHSQHHHHHH

Peptide_007 = molecular target: T20, Peptide_007; experiment: as above
T20 peptide: VHSQHHHHHHHHVKQ

Peptide_107 = molecular target: T21, Peptide_107; experiment: as above
T21 peptide: SGANKEKLEATINEL

Peptide_041 = molecular target: T22, Peptide_041; experiment: as above
T22 peptide: VVDFSATWCGPCKMI

Peptide_101 = molecular target: T23, Peptide_101; experiment: as above
T23 peptide: QKVGEFSGANKEKLE

Peptide_100 = molecular target: T24, Peptide_100; experiment: as above
T24 peptide: GQKVGEFSGANKEKL

Peptide_009 = molecular target: T25, Peptide_009; experiment: as above
T25 peptide: SQHHHHHHHHVKQIE

Peptide_080 = molecular target: T26, Peptide_080; experiment: as above
T26 peptide: QDVASECEVKCMPTF

Peptide_079 = molecular target: T27, Peptide_079; experiment: as above
T27 peptide: CQDVASECEVKCMPT

Peptide_001 = molecular target: T28, Peptide_001; experiment: as above
T28 peptide: VATAADVHSQHHHHH

Peptide_106 = molecular target: T29, Peptide_106; experiment: as above
T29 construct: also called FSGANKEKLEATINE
T29 peptide: FSGANKEKLEATINE

Peptide_005 = molecular target: T30, Peptide_005 (human); experiment: peptide microarray, 0.0016 ug/mL
T30 construct: 15-mer on microarray; not native form, recombinant insert region
T30 peptide: ADVHSQHHHHHHHHV
Experimental: as §1, §2

Peptide_004 = molecular target: T31, Peptide_004 (human); experiment: peptide microarray, 0.0016 ug/mL
T31 construct: 15-mer on microarray; not native form, recombinant insert region
T31 peptide: AADVHSQHHHHHHHH
Experimental: as §1, §2

signal (blank-control = 1) (Peptide_092): 1.86 | signal (blank-control = 1) (Peptide_025): 0.88 | signal (blank-control = 1) (Peptide_019): 0.85 | signal (blank-control = 1) (Peptide_018): 0.68 | signal (blank-control = 1) (Peptide_012): 0.81 | signal (blank-control = 1) (Peptide_045): 4.08 | signal (blank-control = 1) (Peptide_084): 0.97 | signal (blank-control = 1) (Peptide_015): 0.58 | signal (blank-control = 1) (Peptide_014): 0.69 | signal (blank-control = 1) (Peptide_093): 1.12 | signal (blank-control = 1) (Peptide_051): 0.58 | signal (blank-control = 1) (Peptide_022): 0.72 | signal (blank-control = 1) (Peptide_024): 0.72 | signal (blank-control = 1) (Peptide_023): 0.78 | signal (blank-control = 1) (Peptide_094): 0.62 | signal (blank-control = 1) (Peptide_095): 1.07 | binding result (Peptide_026): no binding (tested: 5 ug/mL) | binding result (Peptide_105): no binding (tested: 5 ug/mL) | binding result (Peptide_002): no binding (tested: 5 ug/mL) | binding result (Peptide_007): no binding (tested: 5 ug/mL) | binding result (Peptide_107): no binding (tested: 5 ug/mL) | binding result (Peptide_041): no binding (tested: 5 ug/mL) | binding result (Peptide_101): no binding (tested: 5 ug/mL) | binding result (Peptide_100): no binding (tested: 5 ug/mL) | binding result (Peptide_009): no binding (tested: 5 ug/mL) | binding result (Peptide_080): no binding (tested: 5 ug/mL) | binding result (Peptide_079): no binding (tested: 5 ug/mL) | binding result (Peptide_001): no binding (tested: 5 ug/mL) | binding result (Peptide_106): no binding (tested: 5 ug/mL)
B1: monoclonal antibody B264 (antibody, mouse IgG1, kappa, V domains shown)
VH: QVQLQQSGAELARPGASVKMSCKASGYTFTSYTMHWVKQRPGQGLEWIGYINPTSDYTNYNQKFKDKATLTADKSSSTAYMQLSSLTSEDSAVYFCASEGGFLYYFDYWGQGTTLTVSS
VL: DVLMTQTPLSLPVSLGDQASISCRSSQSIVHSNGNTYLEWYLQKPGQSPKLLIYKVSNRFSGVPDRFSGSGSGTDFTLKISRVEAEDLGVYYCFQGSHVPYTFGGGTKLEIKR
notes: also called AB264; B264 (Trx1-mIgG1)

signal (blank-control = 1) (Peptide_005): 1.6 | signal (blank-control = 1) (Peptide_004): 0.99
B2: monoclonal antibody B266-1 (antibody, human IgG1)
light: QIVLTQSPAIMSASPGEKVTMTCSASSRISYMYWYQQKPGTSPKRWIYDTSKLASGVPARFSGSGSGTSYSLTISTMEAEDAATYYCHQRSSYPTFGAGTKLELKSVAAPSVFIFPPSDEQLKSGTASVVCLLNNFYPREAKVQWKVDNALQSGNSQESVTEQDSKDSTYSLSSTLTLSKADYEKHKVYACEVTHQGLSSPVTKSFNRGEC
heavy: not shown
notes: B266 with the Fc part changed to human IgG1; also called B266-1 (Trx1-hIgG1); B266-1 (hTrx1-hIgG1)
